Test results reported in patent US20160075755A1.

Molecular target: TGFβ1 (UniProt P01137)
Test: cell-based or functional assay

Chain of DNRII (truncated, dominant-negative TGFβ receptor II) (P37173 23-199): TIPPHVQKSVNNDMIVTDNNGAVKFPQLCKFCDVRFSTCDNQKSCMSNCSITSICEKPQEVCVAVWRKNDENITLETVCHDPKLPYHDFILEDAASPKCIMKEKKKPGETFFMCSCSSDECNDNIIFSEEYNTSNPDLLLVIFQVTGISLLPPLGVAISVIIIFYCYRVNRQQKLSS
Chain of TGFβ1 (P01137 279-390 limits assumed): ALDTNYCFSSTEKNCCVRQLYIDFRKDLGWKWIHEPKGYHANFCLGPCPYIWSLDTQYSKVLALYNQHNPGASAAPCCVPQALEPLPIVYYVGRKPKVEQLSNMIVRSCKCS

| Substance | T cell expansion after 30 days in culture in the presence of TGFβ1 [fold] | Total Flux of firefly-luciferase-Du145 cells (express PSCA, produce TGFβ1) after 6 days of co-culture [p/s] | fold expansion of 2G.CAR-PSCA(DNRII) T cells at 2 weeks of culture in the presence of TGFβ1 [fold] | T cell expansion for >60 days in the presence of TGFβ1 [fold] | fold expansion of 2G.CAR-PSCA(RIID4) T cells at 2 weeks of culture in the presence of TGFβ1 [fold] | transgenic T cell proliferation with TGFβ1 alone (no antigen) [fold] |
| --- | --- | --- | --- | --- | --- | --- |
| DNRII (truncated, dominant-negative TGFβ receptor II) (from UniProt P37173 23-199) | 0.72 | 1e+10 | 7.4 | – | – | – |
| RIID4 (chimeric cytokine receptor: exodomain of TGFβRII linked to the endodomain of toll-like receptor (TLR) 4) (from UniProt P37173 23-166; O00206 632-839) | – | 9e+09 | – | 300000 | 21 | 0.04 |
